Patent US20210179716A1 (Pfizer, published 2021)
Substitutions are numbered along the chain they refer to.

B1: P01A11_T30S_N31S_L54I_G100A_W108Y_M113L (antibody, V domains shown)
VH: QVQLVQSGAEVKKPGSSVKVSCKASGYTFSSYAISWVRQAPGQGLEWMGGISPIFGTANYAQKFQGRVTITADESTSTAYMELSSLRSEDTAVYYCARDAGRSSDVGYYVGALDVWGQGTLVTVSS
VL: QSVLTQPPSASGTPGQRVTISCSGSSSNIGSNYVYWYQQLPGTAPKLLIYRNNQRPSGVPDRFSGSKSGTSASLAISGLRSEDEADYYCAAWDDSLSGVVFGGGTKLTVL
notes: Variant of P01A11
B2: P01A11_Y27G_L54I_G100A_M113L (antibody, V domains shown)
VH: B1 VH with Y27G, S30T, S31N, Y108W
VL: not shown
notes: Variant of P01A11
B3: P01A11_Y27G_L54I_G100A_M113I (antibody, V domains shown)
VH: B1 VH with Y27G, S30T, S31N, Y108W, L113I
VL: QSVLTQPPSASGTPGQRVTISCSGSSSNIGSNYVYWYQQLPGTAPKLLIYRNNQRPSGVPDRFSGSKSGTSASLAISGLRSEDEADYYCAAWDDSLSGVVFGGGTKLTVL
notes: Variant of P01A11
B4: P1A11_Y27G (antibody, V domains shown)
VH: B1 VH with Y27G, S30T, S31N, I54L, A100G, Y108W, L113M
VL: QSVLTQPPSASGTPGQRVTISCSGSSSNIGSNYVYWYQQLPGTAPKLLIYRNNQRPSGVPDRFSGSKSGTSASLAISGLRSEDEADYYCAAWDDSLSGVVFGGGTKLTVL
notes: Variant of P01A11
B5: P01A11_Y27G_N31S_L54I_G100A_M113L (antibody, V domains shown)
VH: B1 VH with Y27G, S30T, Y108W
VL: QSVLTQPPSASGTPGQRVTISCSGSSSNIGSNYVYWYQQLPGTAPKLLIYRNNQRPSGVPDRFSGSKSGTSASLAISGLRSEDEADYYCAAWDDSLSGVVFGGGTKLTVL
notes: Variant of P01A11
B6: P01A11_Y27G_L54I_G100A (antibody, V domains shown)
VH: B1 VH with Y27G, S30T, S31N, Y108W, L113M
VL: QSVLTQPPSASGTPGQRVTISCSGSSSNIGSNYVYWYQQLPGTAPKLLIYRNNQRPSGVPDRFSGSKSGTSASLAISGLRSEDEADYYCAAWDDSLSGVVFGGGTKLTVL
notes: Variant of P01A11
B7: P01A11_W108A (antibody, V domains shown)
VH: B1 VH with S30T, S31N, I54L, A100G, Y108A, L113M
VL: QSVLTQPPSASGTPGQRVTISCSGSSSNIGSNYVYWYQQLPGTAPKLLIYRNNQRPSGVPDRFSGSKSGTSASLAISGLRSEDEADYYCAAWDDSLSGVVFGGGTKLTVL
notes: Variant of P01A11
B8: P1A11_W108F (antibody, V domains shown)
VH: B1 VH with S30T, S31N, I54L, A100G, Y108F, L113M
VL: not shown
notes: Variant of P01A11
B9: P1A11_W108Y (antibody, V domains shown)
VH: B1 VH with S30T, S31N, I54L, A100G, L113M
VL: not shown
notes: Variant of P01A11
B10: PDL1_P06A09_parent (antibody, V domains shown)
VH: EVQLVESGGGLVKPGGSLRLSCAASGFTFSNAWMNWVRQAPGKGLEWVGRIKSESDGGTTDYAAPVKGRFTISRDDSKNTLYLQMNSLKTEDTAVYYCTTDYRIDDWGYPYPGMDYWGQGTLVTVSS
VL: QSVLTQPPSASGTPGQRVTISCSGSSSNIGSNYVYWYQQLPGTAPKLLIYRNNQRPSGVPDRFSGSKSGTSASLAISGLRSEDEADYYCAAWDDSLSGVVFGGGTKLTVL
B11: PDL1_P06B05_parent (antibody, V domains shown)
VH: EVQLVESGGGLVKPGGSLRLSCAASGFTFSNAWMNWVRQAPGKGLEWVGRIKTKADGGTTDYAAPVKGRFTISRDDSKNTLYLQMNSLKTEDTAVYYCTTDPGSYWDSVYGGMDYWGQGTLVTVSS
VL: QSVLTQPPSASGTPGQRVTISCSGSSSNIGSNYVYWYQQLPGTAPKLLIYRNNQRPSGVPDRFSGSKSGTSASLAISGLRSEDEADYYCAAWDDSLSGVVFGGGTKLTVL
B12: PDL1_P04D09_parent (antibody, V domains shown)
VH: EVQLLESGGGLVQPGGSLRLSCAASGFTFSSYAMSWVRQAPGKGLEWVSAIGVRGGITYYADSVKGRFTISRDNSKNTLYLQMNSLRAEDTAVYYCARERSVGELVGIDWMDHWGQGTLVTVSS
VL: not shown
B13: PDL1_P06B05_245 (antibody, V domains shown)
VH: B11 VH with S104E
VL: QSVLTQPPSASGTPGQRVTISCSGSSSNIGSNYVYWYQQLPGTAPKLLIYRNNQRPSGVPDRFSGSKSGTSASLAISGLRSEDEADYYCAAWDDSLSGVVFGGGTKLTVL
notes: Monospecific antibody; also called anti-PD-L1 antibody P06B05_245
B14: PDL1_P04D09_113 (antibody, V domains shown)
VH: B12 VH with W110Q
VL: not shown
B15: P06B05_D61A_Y62A (antibody, V domains shown)
VH: B11 VH with D61A, Y62A
VL: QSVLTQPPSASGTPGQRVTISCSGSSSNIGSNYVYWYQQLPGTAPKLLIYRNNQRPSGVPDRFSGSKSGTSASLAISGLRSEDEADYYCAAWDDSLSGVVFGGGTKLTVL
notes: Variant of P06B05
B16: P06B05_D107S (antibody, V domains shown)
VH: B11 VH with D107S
VL: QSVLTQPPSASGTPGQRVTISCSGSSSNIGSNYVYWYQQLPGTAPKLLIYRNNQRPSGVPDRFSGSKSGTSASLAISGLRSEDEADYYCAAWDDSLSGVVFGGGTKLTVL
notes: Variant of P06B05
B17: P06B05_G112S (antibody, V domains shown)
VH: B11 VH with G112S
VL: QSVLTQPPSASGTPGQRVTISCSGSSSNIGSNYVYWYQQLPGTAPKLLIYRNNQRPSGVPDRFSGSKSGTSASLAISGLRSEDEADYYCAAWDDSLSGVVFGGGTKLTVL
notes: Variant of P06B05
B18: P06B05_D61S_Y62Q (antibody, V domains shown)
VH: B11 VH with D61S, Y62Q
VL: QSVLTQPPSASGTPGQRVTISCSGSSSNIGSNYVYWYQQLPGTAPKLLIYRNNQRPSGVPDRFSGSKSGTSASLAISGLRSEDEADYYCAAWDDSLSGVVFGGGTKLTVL
notes: Variant of P06B05
B19: P06B05_S104Y (antibody, V domains shown)
VH: B11 VH with S104Y
VL: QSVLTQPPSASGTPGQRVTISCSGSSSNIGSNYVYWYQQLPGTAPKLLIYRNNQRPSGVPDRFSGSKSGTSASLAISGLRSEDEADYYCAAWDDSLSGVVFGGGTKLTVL
notes: Variant of P06B05
B20: P06B05_D61A_Y62Q (antibody, V domains shown)
VH: B11 VH with D61A, Y62Q
VL: not shown
notes: Variant of P06B05
B21: P06B05_Y105H (antibody, V domains shown)
VH: B11 VH with Y105H
VL: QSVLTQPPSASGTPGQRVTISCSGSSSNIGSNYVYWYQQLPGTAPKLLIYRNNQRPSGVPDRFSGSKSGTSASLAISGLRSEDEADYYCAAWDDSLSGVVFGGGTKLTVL
notes: Variant of P06B05
B22: P06B05_D61E_Y62E (antibody, V domains shown)
VH: B11 VH with D61E, Y62E
VL: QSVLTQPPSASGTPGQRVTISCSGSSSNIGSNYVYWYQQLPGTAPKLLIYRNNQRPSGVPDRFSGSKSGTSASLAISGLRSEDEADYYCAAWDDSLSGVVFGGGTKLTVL
notes: Variant of P06B05
B23: P06B05_D61Q_Y62E (antibody, V domains shown)
VH: B11 VH with D61Q, Y62E
VL: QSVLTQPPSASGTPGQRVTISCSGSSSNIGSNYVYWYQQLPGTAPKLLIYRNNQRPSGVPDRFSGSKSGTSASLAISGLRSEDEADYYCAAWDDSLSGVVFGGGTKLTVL
notes: Variant of P06B05
B24: P06B05_D61S_Y62S (antibody, V domains shown)
VH: B11 VH with D61S, Y62S
VL: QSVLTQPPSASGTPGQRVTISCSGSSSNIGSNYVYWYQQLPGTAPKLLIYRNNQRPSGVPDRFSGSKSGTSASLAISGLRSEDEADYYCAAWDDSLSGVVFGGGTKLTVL
notes: Variant of P06B05
B25: P06B05_S104I (antibody, V domains shown)
VH: B11 VH with S104I
VL: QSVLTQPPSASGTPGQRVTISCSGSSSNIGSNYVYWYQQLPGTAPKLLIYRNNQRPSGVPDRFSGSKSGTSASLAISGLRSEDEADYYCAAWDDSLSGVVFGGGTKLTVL
notes: Variant of P06B05
B26: P06B05_S104A (antibody, V domains shown)
VH: B11 VH with S104A
VL: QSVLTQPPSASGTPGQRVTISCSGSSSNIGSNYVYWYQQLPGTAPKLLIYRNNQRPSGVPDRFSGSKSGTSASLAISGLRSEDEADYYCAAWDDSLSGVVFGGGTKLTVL
notes: Variant of P06B05
B27: P06B05_D61S_Y62A (antibody, V domains shown)
VH: B11 VH with D61S, Y62A
VL: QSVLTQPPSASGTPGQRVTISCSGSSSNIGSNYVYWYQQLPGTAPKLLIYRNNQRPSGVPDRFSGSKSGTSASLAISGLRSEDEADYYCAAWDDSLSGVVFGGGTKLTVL
notes: Variant of P06B05
B28: P06B05_D61Q_Y62S (antibody, V domains shown)
VH: B11 VH with D61Q, Y62S
VL: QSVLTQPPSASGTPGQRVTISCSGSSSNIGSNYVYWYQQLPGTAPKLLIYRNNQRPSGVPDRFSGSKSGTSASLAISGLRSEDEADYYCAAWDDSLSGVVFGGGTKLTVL
notes: Variant of P06B05
B29: P06B05_D107L (antibody, V domains shown)
VH: B11 VH with D107L
VL: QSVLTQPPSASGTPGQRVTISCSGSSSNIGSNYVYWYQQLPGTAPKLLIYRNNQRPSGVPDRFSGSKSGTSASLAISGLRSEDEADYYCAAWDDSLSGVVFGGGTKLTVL
notes: Variant of P06B05
B30: P06B05_D61A_Y62S (antibody, V domains shown)
VH: B11 VH with D61A, Y62S
VL: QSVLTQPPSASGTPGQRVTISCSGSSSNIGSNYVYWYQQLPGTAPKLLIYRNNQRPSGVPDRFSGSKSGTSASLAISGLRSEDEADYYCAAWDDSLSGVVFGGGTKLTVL
notes: Variant of P06B05
B31: P06B05_G112A (antibody, V domains shown)
VH: B11 VH with G112A
VL: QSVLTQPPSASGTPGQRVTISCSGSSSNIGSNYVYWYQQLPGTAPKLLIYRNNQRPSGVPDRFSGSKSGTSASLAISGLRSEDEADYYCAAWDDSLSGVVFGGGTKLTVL
notes: Variant of P06B05
B32: P06B05_G103I (antibody, V domains shown)
VH: B11 VH with G103I
VL: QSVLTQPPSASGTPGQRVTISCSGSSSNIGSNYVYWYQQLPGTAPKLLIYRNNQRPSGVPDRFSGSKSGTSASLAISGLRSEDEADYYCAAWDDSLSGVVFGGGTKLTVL
notes: Variant of P06B05
B33: P06B05_D56E_G57E (antibody, V domains shown)
VH: B11 VH with D56E, G57E
VL: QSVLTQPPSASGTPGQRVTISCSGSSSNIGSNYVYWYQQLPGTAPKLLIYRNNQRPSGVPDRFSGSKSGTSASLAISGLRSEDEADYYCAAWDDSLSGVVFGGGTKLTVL
notes: Variant of P06B05
B34: P06B05_D61A_Y62E (antibody, V domains shown)
VH: B11 VH with D61A, Y62E
VL: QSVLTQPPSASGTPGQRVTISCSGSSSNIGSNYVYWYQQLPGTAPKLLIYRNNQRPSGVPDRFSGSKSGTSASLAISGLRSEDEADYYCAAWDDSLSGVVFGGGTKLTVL
notes: Variant of P06B05
B35: P06B05_S104E (antibody, V domains shown)
VH: B11 VH with S104E
VL: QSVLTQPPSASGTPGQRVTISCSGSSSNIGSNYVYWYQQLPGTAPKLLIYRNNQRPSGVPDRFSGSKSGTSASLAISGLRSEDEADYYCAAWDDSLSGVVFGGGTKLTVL
notes: Variant of P06B05
B36: P06B05_D56E_G57A (antibody, V domains shown)
VH: B11 VH with D56E, G57A
VL: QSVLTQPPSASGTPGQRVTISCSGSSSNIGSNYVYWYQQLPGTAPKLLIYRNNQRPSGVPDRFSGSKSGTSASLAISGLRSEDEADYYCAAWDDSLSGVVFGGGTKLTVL
notes: Variant of P06B05
B37: P06B05_M113L (antibody, V domains shown)
VH: B11 VH with M113L
VL: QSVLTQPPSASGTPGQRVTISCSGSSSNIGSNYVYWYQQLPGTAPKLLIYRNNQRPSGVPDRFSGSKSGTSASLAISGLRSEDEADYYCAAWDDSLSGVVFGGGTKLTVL
notes: Variant of P06B05
B38: P06B05_S104H (antibody, V domains shown)
VH: B11 VH with S104H
VL: not shown
notes: Variant of P06B05
B39: P06B05_V109S (antibody, V domains shown)
VH: B11 VH with V109S
VL: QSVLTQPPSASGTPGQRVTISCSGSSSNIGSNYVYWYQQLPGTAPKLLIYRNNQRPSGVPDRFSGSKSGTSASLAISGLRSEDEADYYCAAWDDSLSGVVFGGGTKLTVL
notes: Variant of P06B05
B40: P06B05_D107Y (antibody, V domains shown)
VH: B11 VH with D107Y
VL: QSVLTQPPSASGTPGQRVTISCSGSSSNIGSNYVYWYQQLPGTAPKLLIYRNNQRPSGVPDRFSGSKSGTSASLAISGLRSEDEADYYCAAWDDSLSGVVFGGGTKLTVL
notes: Variant of P06B05

Target: T1, human CD47 protein (human, UniProt Q08722 19-139, limits assumed)
T1 construct: Soluble protein used for the KD measurements; construct not described; also called hCD47; CD47 (human)
T1 sequence (Q08722 19-139 limits assumed): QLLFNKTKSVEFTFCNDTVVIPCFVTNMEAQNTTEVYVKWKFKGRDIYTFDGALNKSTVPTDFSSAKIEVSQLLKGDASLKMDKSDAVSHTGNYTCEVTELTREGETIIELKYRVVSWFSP
Assay: KD; method not stated

| Kd [nM] | Binder |
| --- | --- |
| > 1500 | B1 |
| 154 | B2 |
| 263 | B3 |
| 20 | B4 |
| 497 | B5 |
| 132 | B6 |
| 608 | B7 |
| 103 | B8 |
| 25 | B9 |

Target: T2, cynomolgus CD47 protein (cynomolgus monkey, UniProt A0A2K5X523 19-139)
T2 construct: also called cyCD47; Cyno CD47
Assay: KD; method not stated

| Kd [nM] | Binder |
| --- | --- |
| > 1500 | B1 |
| 198 | B2 |
| 371 | B3 |
| 23 | B4 |
| 704 | B5 |
| 180 | B6 |
| 773 | B7 |
| 117 | B8 |
| 32 | B9 |

Target: T3, human PD-L1 protein (human, UniProt Q9NZQ7 19-238)
T3 construct: Soluble protein used for the KD measurements; construct not described; also called hPD-L1; CD274
T3 sequence (Q9NZQ7 19-238 limits assumed): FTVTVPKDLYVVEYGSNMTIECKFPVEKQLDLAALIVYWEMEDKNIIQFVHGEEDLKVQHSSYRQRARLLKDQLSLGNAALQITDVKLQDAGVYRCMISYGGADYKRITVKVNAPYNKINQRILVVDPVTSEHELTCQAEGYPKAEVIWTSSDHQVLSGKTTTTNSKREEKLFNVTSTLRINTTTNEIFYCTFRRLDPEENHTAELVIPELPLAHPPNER
Assay: KD; method not stated

| Kd [nM] | Binder |
| --- | --- |
| 2.97 | B10 |
| 4.42 | B11 |
| 0.56 | B12 |

Target: T4, cynomolgus PD-L1 protein (cynomolgus monkey, UniProt G7PSE7 19-238)
T4 construct: also called cyPD-L1; Cyno PD-L1
T4 sequence (G7PSE7 entry or part of it): as the sequence (Q9NZQ7 19-238 limits assumed) above, with A33T, A34S, S62N, R68Q, Q82R, F173L, T185A, T192I, H215L counted along it
Assay: KD; method not stated

| Kd [nM] | Binder |
| --- | --- |
| 5.75 | B10 |
| 8.07 | B11 |
| 1.15 | B12 |

Target: T3, human PD-L1 protein
Assay: KD; method not stated
Remark: another data set of the same source

| Kd [nM] | Binder |
| --- | --- |
| 1.6 | B13 |
| 1.7 | B14 |

Target: T4, cynomolgus PD-L1 protein
Assay: KD; method not stated
Remark: another data set of the same source

| Kd [nM] | Binder |
| --- | --- |
| 1.6 | B13 |
| 1.7 | B14 |

Target: T3, human PD-L1 protein
Assay: KD; method not stated
Remark: another data set of the same source

| Kd [nM] | Binder |
| --- | --- |
| 2.36 | B11 |
| 4.01 | B15 |
| 23.9 | B16 |
| 1.69 | B17 |
| 5.98 | B18 |
| 9.75 | B19 |
| 5.97 | B20 |
| 12.8 | B21 |
| 9.49 | B22 |
| 5.81 | B23 |
| 6.1 | B24 |
| < 0.74 | B25 |
| 3.5 | B26 |
| 6.71 | B27 |
| 5.02 | B28 |
| 90.2 | B29 |
| 5.37 | B30 |
| 3.71 | B31 |
| 8.06 | B32 |
| 69.7 | B33 |
| 3.28 | B34 |
| 0.8 | B35 |
| 95.5 | B36 |
| 6.82 | B37 |
| 7.9 | B38 |
| 76.5 | B39 |
| 3.03 | B40 |

Target: T4, cynomolgus PD-L1 protein
Assay: KD; method not stated
Remark: another data set of the same source

| Kd [nM] | Binder |
| --- | --- |
| 3.11 | B11 |
| 3.67 | B15 |
| 26.3 | B16 |
| 1.74 | B17 |
| 3.73 | B18 |
| 5.79 | B19 |
| 4.96 | B20 |
| 6.58 | B21 |
| 8.39 | B22 |
| 4.43 | B23 |
| 2.15 | B24 |
| 0.99 | B25 |
| 3.93 | B26 |
| < 1.19 | B27 |
| 5.54 | B28 |
| 83 | B29 |
| 2.75 | B30 |
| 3.72 | B31 |
| 8.11 | B32 |
| 60.6 | B33 |
| 3.17 | B34 |
| 0.45 | B35 |
| 92.2 | B36 |
| 6.55 | B37 |
| 6.11 | B38 |
| > 100 | B39 |
| 3.23 | B40 |

Target: T5, mouse PD-L1 protein (mouse, UniProt Q9EP73 19-238)
T5 construct: also called mPD-L1
T5 sequence (Q9EP73 19-238 limits assumed): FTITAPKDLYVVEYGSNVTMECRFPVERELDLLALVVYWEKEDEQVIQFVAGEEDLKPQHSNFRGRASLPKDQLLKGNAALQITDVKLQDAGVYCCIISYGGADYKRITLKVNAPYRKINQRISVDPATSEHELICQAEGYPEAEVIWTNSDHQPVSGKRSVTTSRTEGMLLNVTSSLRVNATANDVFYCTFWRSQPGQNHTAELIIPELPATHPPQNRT
Assay: KD; method not stated

| Kd [nM] | Binder |
| --- | --- |
| 77.7 | B17 |
| 131 | B31 |
| 23.1 | B35 |
| > 1500 | B36 |

Target: T3, human PD-L1 protein
Assay: half-life of the complex; method not stated

| T1/2 [min] | Binder |
| --- | --- |
| 5.13 | B10 |
| 28.2 | B11 |
| 43.6 | B12 |

Target: T4, cynomolgus PD-L1 protein
Assay: half-life of the complex; method not stated

| T1/2 [min] | Binder |
| --- | --- |
| 2.79 | B10 |
| 10.2 | B11 |
| 20.1 | B12 |

Target: T3, human PD-L1 protein
Assay: half-life of the complex; method not stated
Remark: another data set of the same source

| T1/2 [min] | Binder |
| --- | --- |
| 23.4 | B13 |
| 22.2 | B14 |

Target: T4, cynomolgus PD-L1 protein
Assay: half-life of the complex; method not stated
Remark: another data set of the same source

| T1/2 [min] | Binder |
| --- | --- |
| 23.7 | B13 |
| 23.4 | B14 |

Target: T5, mouse PD-L1 protein
Assay: column 'Cross with mouse?'; method not stated

| Kd [nM] | Binder |
| --- | --- |
| 113 | B10 |
| 207 | B11 |
| 20.4 | B12 |
